Reference: US20210346432A1 (Memorial Sloan Kettering, published 2021)
No end group written: not given here. *: point of attachment. Biotin = O=C1N[C@H]2[C@H](CS[C@H]2CCCCC(=O)*)N1

T1: ET140-p1 (human)
T1 construct: also called peptide 1; ET140-pl
T1 peptide: Biotin-SGSGLQMAGQCSQNEYFDS

T2: ET140-p2 (human)
T2 construct: also called peptide 2
T2 peptide: Biotin-SGSGQMAGQCSQNEYFDSL

T3: ET140-p4 (human)
T3 construct: also called peptide 4
T3 peptide: Biotin-SGSGAGQCSQNEYFDSLLH

T4: ET140-p5 (human)
T4 construct: also called peptide 5
T4 peptide: Biotin-SGSGGQCSQNEYFDSLLHA

T5: ET140-p7 (human, cysteine pairing not given here)
T5 construct: also called peptide 7
T5 peptide: Biotin-SGSGCSQNEYFDSLLHACI

T6: ET140-p10 (human, cysteine pairing not given here)
T6 construct: also called peptide 10
T6 peptide: Biotin-SGSGNEYFDSLLHACIPCQ

T7: ET140-p12 (human, cysteine pairing not given here)
T7 construct: also called peptide 12
T7 peptide: Biotin-SGSGYFDSLLHACIPCQLR

T8: ET140-p13 (human, cysteine pairing not given here)
T8 construct: also called peptide 13
T8 peptide: Biotin-SGSGFDSLLHACIPCQLRC

T9: ET140-p14 (human, cysteine pairing not given here)
T9 construct: also called peptide 14
T9 peptide: Biotin-SGSGDSLLHACIPCQLRCS

T10: ET140-p15 (human, cysteine pairing not given here)
T10 construct: also called peptide 15
T10 peptide: Biotin-SGSGSLLHACIPCQLRCSS

T11: ET140-p17 (human, cysteine pairing not given here)
T11 construct: also called peptide 17
T11 peptide: Biotin-SGSGLHACIPCQLRCSSNT

T12: ET140-p22 (human, cysteine pairing not given here)
T12 construct: also called peptide 22
T12 peptide: Biotin-SGSGPCQLRCSSNTPPLTC

T13: ET140-p27 (human, cysteine pairing not given here)
T13 construct: also called peptide 27
T13 peptide: Biotin-SGSGCSSNTPPLTCQRYCN

T14: ET140-p28 (human, cysteine pairing not given here)
T14 construct: also called peptide 28
T14 peptide: Biotin-SGSGSSNTPPLTCQRYCNA

T15: ET140-p31 (human, cysteine pairing not given here)
T15 construct: also called peptide 31
T15 peptide: Biotin-SGSGTPPLTCQRYCNASVT

T16: ET140-p32 (human, cysteine pairing not given here)
T16 construct: also called peptide 32
T16 peptide: Biotin-SGSGPPLTCQRYCNASVTN

T17: ET140-p33 (human, cysteine pairing not given here)
T17 construct: also called peptide 33
T17 peptide: Biotin-SGSGPLTCQRYCNASVTNS

T18: ET140-p35 (human, cysteine pairing not given here)
T18 construct: also called peptide 35
T18 peptide: Biotin-SGSGTCQRYCNASVTNSVK

T19: ET140-p36 (human, cysteine pairing not given here)
T19 construct: also called peptide 36
T19 peptide: Biotin-SGSGCQRYCNASVTNSVKG

T20: ET140-p37 (human)
T20 construct: also called peptide 37
T20 peptide: Biotin-SGSGQRYCNASVTNSVKGT

T21: ET140-p38 (human)
T21 construct: also called peptide 38
T21 peptide: Biotin-SGSGRYCNASVTNSVKGTN

T22: ET140-p39 (human)
T22 construct: also called peptide 39
T22 peptide: Biotin-SGSGYCNASVTNSVKGTNA

T23: biotinylated BCMA-Fc protein (human, UniProt Q02223 1-54, biotinylated (site not stated))
T23 construct: also called BCMA recombinant antigen; not shown: Fc part
T23 sequence: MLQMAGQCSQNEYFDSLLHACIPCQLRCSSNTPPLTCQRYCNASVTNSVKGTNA


What was measured:
[1] = biological target: T1, ET140-p1; assay: peptide ELISA on streptavidin plate, antibody 1 ug/mL
Description: (§1) The peptides were coated onto Streptavidin plates at 2 ug/mL in PBST (PBS+0.05% Tween-20). After washing and blocking with 3% BSA. […] “mIgG1” used in all Examples represents that the variable region is fully human and the Fc part is mouse IgG1. Then HRP anti-mouse IgG detection antibody was added to each well. Finally, the color was developed using TMB substrate. A450 was recorded for data analysis.

[2] = biological target: T2, ET140-p2; assay: as above
Description: as §1

[3] = biological target: T3, ET140-p4; assay: as above
Description: as §1

[4] = biological target: T4, ET140-p5; assay: as above
Description: as §1

[5] = biological target: T5, ET140-p7; assay: as above
Description: as §1

[6] = biological target: T6, ET140-p10; assay: as above
Description: as §1

[7] = biological target: T7, ET140-p12; assay: as above
Description: as §1

[8] = biological target: T8, ET140-p13; assay: as above
Description: as §1

[9] = biological target: T9, ET140-p14; assay: as above
Description: as §1

[10] = biological target: T10, ET140-p15; assay: as above
Description: as §1

[11] = biological target: T11, ET140-p17; assay: as above
Description: as §1

[12] = biological target: T12, ET140-p22; assay: as above
Description: as §1

[13] = biological target: T13, ET140-p27; assay: as above
Description: as §1

[14] = biological target: T14, ET140-p28; assay: as above
Description: as §1

[15] = biological target: T15, ET140-p31; assay: as above
Description: as §1

[16] = biological target: T16, ET140-p32; assay: as above
Description: as §1

[17] = biological target: T17, ET140-p33; assay: as above
Description: as §1

[18] = biological target: T18, ET140-p35; assay: as above
Description: as §1

[19] = biological target: T19, ET140-p36; assay: as above
Description: as §1

[20] = biological target: T20, ET140-p37; assay: as above
Description: as §1

[21] = biological target: T21, ET140-p38; assay: as above
Description: as §1

[22] = biological target: T22, ET140-p39; assay: as above
Description: as §1

[23] = biological target: T23, biotinylated BCMA-Fc protein; assay: SPR (BIAcore X100), biotinylated BCMA-Fc captured on Sensor Chip CAP, antibody injected, 1:1 Langmuir fit
Description: In brief, 50 μg/mL of modified streptavidin was immobilized onto a Sensor Chip CAP by flowing the Biotin CAPture Reagent through the flow cells at 2 μL/min for 5 minutes. 10 ug/mL biotinylated BCMA-Fc protein was loaded onto the flow cell at a rate of 30 μL/min for 3 minutes. Following the standard protocol for kinetics, a series of injection of ESK1 was performed between 0.6 and 15 μg/mL, each step consisting of a 3 minute injection at 30 μL/min and 3 minute disassociation. […] Kinetic constants were derived by the global fitting (1:1 Langmuir binding model) using BIAcore ×100 Evaluation Software (Version 2.0.1).

| Binder | A450 [1] | A450 [2] | A450 [3] | A450 [4] | A450 [5] | A450 [6] | A450 [7] | A450 [8] | A450 [9] | A450 [10] | A450 [11] | A450 [12] | A450 [13] | A450 [14] | A450 [15] | A450 [16] | A450 [17] | A450 [18] | A450 [19] | A450 [20] | other results |
| --- | --- | --- | --- | --- | --- | --- | --- | --- | --- | --- | --- | --- | --- | --- | --- | --- | --- | --- | --- | --- | --- |
| ET140-153 mIgG1 (antibody, V domains shown, also called ET140-3 mIgG1; ET140-3) VH: QVQLVQSGAEVKKPGSSVKVSCKASGGTFSSYAISWVRQAPGQGLEWMGRIIPILGIANYAQKFQGRVTITADKSTSTAYMELSSLRSEDTAVYYCARGGYYSHDMWSEDWGQGTLVTVSS VL: LPVLTQPPSASGTPGQRVTISCSGRSSNIGSNSVNWYRQLPGAAPKLLIYSNNQRPPGVPVRFSGSKSGTSASLAISGLQSEDEATYYCATWDDNLNVHYVFGTGTKVTVLG | 0.084 | 0.076 | 0.094 | 0.08 | 0.381 | 0.758 | 2.08 | 1.03 | 0.124 | 0.328 | 0.155 | 0.131 | 0.12 | 0.109 | 0.107 | 0.099 | 0.116 | 0.072 | 0.089 | 0.085 | A450 [21]: 0.08; A450 [22]: 0.072; Kd [23]: 1.2 nM |
| ET140-204 mIgG1 (antibody, V domains shown, also called ET140-54 mIgG1; ET140-54) VH: EVQLVQSGAEMKKPGASLKLSCKASGYTFIDYYVYWMRQAPGQGLESMGWINPNSGGTNYAQKFQGRVTMTRDTSISTAYMELSRLRSDDTAMYYCARSQRDGYMDYWGQGTLVTVSS VL: QSALTQPASVSASPGQSIAISCTGTSSDVGWYQQHPGKAPKLMIYEDSKRPSGVSNRFSGSKSGNTASLTISGLQAEDEADYYCSSNTRSSTLVFGGGTKLTVLG | 0.069 | 0.076 | 0.073 | 0.069 | 0.075 | 0.087 | 0.139 | 0.138 | 0.104 | 0.276 | 0.146 | 0.111 | 0.103 | 0.093 | 0.08 | 0.092 | 0.084 | 0.071 | 0.085 | 0.083 | A450 [21]: 0.069; A450 [22]: 0.074; Kd [23]: 8.1 nM |
| ET140-174 mIgG1 (antibody, V domains shown, also called ET140-24 mIgG1; ET140-24) VH: EVQLVQSGAEVKKPGESLKISCKGSGYSFTSYWIGWVRQMPGKGLEWMGIIYPGDSDTRYSPSFQGHVTISADKSISTAYLQWSSLKASDTAMYYCARYSGSFDNWGQGTLVTVSS VL: not shown | 0.084 | 0.079 | 0.081 | 0.073 | 0.087 | 0.115 | 0.137 | 0.143 | 0.105 | 0.268 | 0.15 | 0.098 | 0.1 | 0.101 | 0.085 | 0.092 | 0.083 | 0.076 | 0.084 | 0.086 | A450 [21]: 0.071; A450 [22]: 0.071; Kd [23]: 4.8 nM |
